In assay [1] the target is T1, recombinant human ILT4 (LILRB2) (human, UniProt Q8N423 22-460).
T1 construct: Bought protein (Acro Biosystems or R&D Systems); also called ILTR4
Briefly: SPR, high resolution kinetics, triplicate, LALA antibody.

Assay [2] concerns the target T1, recombinant human ILT4 (LILRB2). Description: SPR, high resolution kinetics, triplicate, LALA antibody; 95% CI in parentheses. A general note: In SPR one partner is held on a chip, and binding of the other changes the refractive index at the surface.
For assay [3], the target named is T2, human ILT4 expressed on cells (human, UniProt Q8N423 22-597).
T2 construct: whole, on cells; The same entry is used for endogenous ILT4 of human macrophages; also called CHO-S/ILT4 cells; ILT4-CHO cells
Briefly: flow cytometry, blockade of PE-HLA-A tetramer (5 ug/ml) binding to ILT4-CHO cells, Experiment 3 (table title prints HLA-G). On the technique in general: Flow cytometry measures light scatter and fluorescence of single cells or particles in a stream.

For assay [4], the target named is T2, human ILT4 expressed on cells. Description: flow cytometry, blockade of PE-HLA-G tetramer binding to ILT4-CHO cells, Experiment 3.
Assay [5] deals with T3, LILRA2 (human, UniProt Q8N149 24-449).
T3 construct: Bought protein; limits of the extracellular domain are marked by bold type not visible here; whole entry named; also called recombinant human LILRA2
Briefly: SPR, Biacore 8K, mAb captured on anti-human Fc, analyte injected. Here is the method:
(§1) SPR was used to determine the specificity of four humanized anti-ILT4 mAbs for binding to LILRB2 and to determine any cross-reactivity with nine other LILRA and LILRB family members. LILR proteins were purchased from Acro Biosystems or R&D Systems, with sequence provided below. The studies were performed with a Biacore 8K instrument using a CM4 sensor chip with a running buffer of HBS-P+, 100 μg/mL BSA. Anti-human Fc specific capture surfaces were prepared using standard amine coupling chemistry. MAb was captured to flow cell 2 with flow cell 1 serving as the reference flow cell. Each of the nine family members and LILRB2 were injected at 100 nM at 30 μL/min for 90 sec with 240 sec of dissociation. […] All sensorgrams were doubled-referenced during processing of the data.

Assay [6] has as its target T4, LILRB1 (human, UniProt Q8NHL6 24-461).
T4 construct: Bought protein; limits of the extracellular domain are marked by bold type not visible here; whole entry named; also called recombinant human LILRB1; ILT2
The description is as above. The procedure: as §1

Assay [7] has as its target T5, LILRA1 (human, UniProt O75019 17-461).
T5 construct: Bought protein; limits of the extracellular domain are marked by bold type not visible here; whole entry named; also called recombinant human LILRA1
The assay is described as above. The procedure: as §1

The target of assay [8] is T6, LILRB4 (human, UniProt Q8NHJ6 22-259).
T6 construct: Bought protein; limits of the extracellular domain are marked by bold type not visible here; whole entry named; also called recombinant human LILRB4; ILT3
Described as above. The procedure: as §1

Assay [9] deals with T7, LILRA4 (human, UniProt P59901 24-446).
T7 construct: Bought protein; limits of the extracellular domain are marked by bold type not visible here; whole entry named; also called recombinant human LILRA4
Described as above. The procedure: as §1

Assay [10] addresses T8, LILRB3 (human, UniProt O75022 24-443).
T8 construct: Bought protein; limits of the extracellular domain are marked by bold type not visible here; whole entry named; also called recombinant human LILRB3; ILT5
The description is as above. The procedure: as §1

Assay [11] deals with T9, LILRA5 (human, UniProt A6NI73 42-268).
T9 construct: Bought protein; limits of the extracellular domain are marked by bold type not visible here; whole entry named; also called recombinant human LILRA5
The assay is described as above. Here is the method:
as §1

Assay [12] concerns the target T10, LILRA6 (human, UniProt Q6PI73 24-447).
T10 construct: Bought protein; limits of the extracellular domain are marked by bold type not visible here; whole entry named; also called recombinant human LILRA6
The description is as above. The procedure:
as §1

Assay [13] deals with T11, LILRA3 (human, UniProt Q8N6C8 24-439).
T11 construct: Bought protein; limits of the part used are marked by bold type not visible here; whole entry named; also called recombinant human LILRA3
Described as above. Here is the method:
as §1

The target of assay [14] is T2, human ILT4 expressed on cells. Description: flow cytometry, direct binding of AF647-labelled antibody (0-10 µg/ml) to ILT4-CHO cells. The procedure:
AF647-Hz45.01-LALA and AF647-Hz156.03-LALA at various concentrations (0-10 μg/ml) were incubated with ILT4-CHO cells and analyzed by flow cytometry.

For assay [15] the target is unchanged. Briefly: flow cytometry on ILT4-CHO cells, unlabelled mAb titrated; competitor AF647-Hz45.01-LALA. Here is the method:
Competition binding assays were performed. […] Binding activities were measured by flow cytometry.
Anti-human ILT4 mAbs at various concentrations (0-15 μg/ml) were incubated with ILT4-CHO cells. Cells were washed and stained with AF647-Hz45.01-LALA. Cells were analyzed by flow cytometry.

Assay [16] shares this target. Description: flow cytometry, blockade of PE-HLA-A tetramer (5 ug/ml) binding to ILT4-CHO cells, Experiment 1 (table title prints HLA-G).

T1 sequence (Q8N423 other isoform, or with tags, fused parts or gaps limits assumed): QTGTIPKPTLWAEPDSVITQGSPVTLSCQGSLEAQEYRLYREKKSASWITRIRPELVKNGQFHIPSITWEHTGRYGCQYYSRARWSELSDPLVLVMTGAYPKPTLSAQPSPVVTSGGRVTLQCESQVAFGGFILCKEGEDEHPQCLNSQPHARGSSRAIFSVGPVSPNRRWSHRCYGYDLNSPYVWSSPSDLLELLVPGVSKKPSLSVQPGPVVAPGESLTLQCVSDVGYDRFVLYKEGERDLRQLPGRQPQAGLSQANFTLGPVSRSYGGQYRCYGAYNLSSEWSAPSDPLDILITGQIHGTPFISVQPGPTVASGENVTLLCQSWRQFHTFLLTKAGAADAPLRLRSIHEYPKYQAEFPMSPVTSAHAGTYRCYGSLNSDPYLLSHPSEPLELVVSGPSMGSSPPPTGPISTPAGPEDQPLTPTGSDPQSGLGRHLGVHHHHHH
T2 sequence (Q8N423 22-597): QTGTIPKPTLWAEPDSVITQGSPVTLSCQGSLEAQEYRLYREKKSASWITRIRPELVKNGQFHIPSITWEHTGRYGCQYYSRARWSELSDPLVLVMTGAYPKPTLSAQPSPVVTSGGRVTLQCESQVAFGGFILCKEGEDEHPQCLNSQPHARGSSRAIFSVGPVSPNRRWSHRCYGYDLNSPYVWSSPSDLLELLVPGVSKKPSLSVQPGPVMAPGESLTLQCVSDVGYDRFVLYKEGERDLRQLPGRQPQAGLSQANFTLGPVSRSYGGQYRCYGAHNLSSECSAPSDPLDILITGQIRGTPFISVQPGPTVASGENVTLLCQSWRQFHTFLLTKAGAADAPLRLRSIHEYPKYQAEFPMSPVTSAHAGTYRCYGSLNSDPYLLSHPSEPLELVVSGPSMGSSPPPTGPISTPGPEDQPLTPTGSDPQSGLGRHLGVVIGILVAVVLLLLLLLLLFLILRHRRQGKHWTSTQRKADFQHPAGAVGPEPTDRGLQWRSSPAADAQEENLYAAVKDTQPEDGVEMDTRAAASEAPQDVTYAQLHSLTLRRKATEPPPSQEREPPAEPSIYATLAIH
T8 sequence (O75022 other isoform, or with tags, fused parts or gaps): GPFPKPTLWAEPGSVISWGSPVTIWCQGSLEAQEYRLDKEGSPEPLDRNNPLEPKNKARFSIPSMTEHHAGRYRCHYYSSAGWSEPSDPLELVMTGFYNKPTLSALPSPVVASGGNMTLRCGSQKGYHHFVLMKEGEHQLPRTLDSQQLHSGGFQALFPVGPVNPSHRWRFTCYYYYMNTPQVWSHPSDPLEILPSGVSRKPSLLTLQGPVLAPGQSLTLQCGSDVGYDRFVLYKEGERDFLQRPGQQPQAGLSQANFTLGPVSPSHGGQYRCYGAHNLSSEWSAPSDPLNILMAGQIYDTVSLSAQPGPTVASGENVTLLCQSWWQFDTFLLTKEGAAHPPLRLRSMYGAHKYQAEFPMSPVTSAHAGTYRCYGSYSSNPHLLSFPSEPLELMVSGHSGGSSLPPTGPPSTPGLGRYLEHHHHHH
T4 sequence (Q8NHL6 other isoform, or with tags, fused parts or gaps): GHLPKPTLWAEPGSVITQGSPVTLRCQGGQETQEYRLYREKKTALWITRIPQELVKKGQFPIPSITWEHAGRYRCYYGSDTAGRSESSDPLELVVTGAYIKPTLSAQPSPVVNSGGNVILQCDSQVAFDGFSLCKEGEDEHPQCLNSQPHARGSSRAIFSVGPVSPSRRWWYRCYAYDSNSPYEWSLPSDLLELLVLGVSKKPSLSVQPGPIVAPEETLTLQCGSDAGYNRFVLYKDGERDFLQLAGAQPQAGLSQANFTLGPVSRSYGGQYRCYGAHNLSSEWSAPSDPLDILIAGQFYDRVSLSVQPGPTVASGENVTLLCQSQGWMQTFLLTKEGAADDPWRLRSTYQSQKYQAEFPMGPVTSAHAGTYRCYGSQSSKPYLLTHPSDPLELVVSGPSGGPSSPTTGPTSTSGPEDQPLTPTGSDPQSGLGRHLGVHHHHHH
T5 sequence (O75019 other isoform, or with tags, fused parts or gaps): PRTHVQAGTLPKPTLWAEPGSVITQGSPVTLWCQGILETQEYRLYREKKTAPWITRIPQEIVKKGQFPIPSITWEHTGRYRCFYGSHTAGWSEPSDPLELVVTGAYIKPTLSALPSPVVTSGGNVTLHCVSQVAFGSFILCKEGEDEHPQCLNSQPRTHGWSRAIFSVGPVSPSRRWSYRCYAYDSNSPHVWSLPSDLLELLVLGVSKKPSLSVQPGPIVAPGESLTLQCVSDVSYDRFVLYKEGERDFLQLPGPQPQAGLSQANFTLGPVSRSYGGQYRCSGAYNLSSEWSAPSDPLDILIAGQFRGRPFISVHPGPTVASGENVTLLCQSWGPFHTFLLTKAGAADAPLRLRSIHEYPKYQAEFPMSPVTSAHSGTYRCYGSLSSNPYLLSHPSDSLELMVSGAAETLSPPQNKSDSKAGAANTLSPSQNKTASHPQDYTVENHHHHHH
T6 sequence (Q8NHJ6 other isoform, or with tags, fused parts or gaps): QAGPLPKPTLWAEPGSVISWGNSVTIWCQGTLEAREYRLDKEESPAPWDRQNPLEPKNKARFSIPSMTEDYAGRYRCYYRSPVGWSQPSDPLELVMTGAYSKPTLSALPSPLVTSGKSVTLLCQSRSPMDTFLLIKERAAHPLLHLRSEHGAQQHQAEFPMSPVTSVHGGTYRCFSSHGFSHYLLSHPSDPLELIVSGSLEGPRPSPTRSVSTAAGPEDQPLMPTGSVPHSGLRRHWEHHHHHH
T9 sequence (A6NI73 other isoform, or with tags, fused parts or gaps): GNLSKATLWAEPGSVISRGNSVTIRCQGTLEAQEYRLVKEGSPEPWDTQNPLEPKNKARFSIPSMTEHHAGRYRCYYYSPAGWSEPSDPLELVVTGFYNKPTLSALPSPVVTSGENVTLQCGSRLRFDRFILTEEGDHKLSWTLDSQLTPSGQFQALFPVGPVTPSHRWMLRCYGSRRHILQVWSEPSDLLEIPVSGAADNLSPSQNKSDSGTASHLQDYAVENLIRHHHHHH
T11 sequence (Q8N6C8 24-439 A105V limits assumed): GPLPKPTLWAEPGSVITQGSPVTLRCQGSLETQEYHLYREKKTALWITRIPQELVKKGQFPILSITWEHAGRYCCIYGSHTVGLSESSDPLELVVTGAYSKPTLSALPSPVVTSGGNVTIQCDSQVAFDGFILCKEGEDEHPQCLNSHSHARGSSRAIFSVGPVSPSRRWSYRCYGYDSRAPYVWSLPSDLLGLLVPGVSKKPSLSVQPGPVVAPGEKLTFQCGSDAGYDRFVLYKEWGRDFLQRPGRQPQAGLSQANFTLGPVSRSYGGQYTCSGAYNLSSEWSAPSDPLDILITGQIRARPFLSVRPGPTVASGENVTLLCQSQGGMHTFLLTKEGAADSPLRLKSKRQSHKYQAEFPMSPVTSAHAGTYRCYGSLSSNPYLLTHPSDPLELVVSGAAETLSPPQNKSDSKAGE
T3 sequence (Q8N149 other isoform, or with tags, fused parts or gaps): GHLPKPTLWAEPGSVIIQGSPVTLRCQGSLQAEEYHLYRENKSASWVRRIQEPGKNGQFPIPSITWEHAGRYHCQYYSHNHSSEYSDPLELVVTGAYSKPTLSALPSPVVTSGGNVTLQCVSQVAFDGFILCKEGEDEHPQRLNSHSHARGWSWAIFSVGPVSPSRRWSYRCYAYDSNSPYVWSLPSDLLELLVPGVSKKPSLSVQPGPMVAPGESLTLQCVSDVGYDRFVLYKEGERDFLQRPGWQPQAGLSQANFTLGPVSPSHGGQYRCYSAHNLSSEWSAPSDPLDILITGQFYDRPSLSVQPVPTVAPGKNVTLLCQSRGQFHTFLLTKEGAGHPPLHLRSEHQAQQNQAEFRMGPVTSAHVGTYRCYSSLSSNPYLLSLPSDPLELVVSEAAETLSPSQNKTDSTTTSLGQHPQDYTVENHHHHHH
T7 sequence (P59901 other isoform, or with tags, fused parts or gaps): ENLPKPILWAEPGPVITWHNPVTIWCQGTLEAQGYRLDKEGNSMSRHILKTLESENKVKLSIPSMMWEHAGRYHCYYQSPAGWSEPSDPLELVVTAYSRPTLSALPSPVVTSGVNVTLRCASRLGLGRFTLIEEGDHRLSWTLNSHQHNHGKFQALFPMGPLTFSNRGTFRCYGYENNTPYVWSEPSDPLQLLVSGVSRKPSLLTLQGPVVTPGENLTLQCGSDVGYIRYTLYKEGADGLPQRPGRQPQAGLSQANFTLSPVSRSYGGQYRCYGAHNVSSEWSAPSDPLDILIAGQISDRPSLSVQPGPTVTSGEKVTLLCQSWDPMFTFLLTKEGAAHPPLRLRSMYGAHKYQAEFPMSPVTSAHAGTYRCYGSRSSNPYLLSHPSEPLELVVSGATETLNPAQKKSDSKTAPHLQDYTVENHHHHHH
T10 sequence (Q6PI73 other isoform, or with tags, fused parts or gaps): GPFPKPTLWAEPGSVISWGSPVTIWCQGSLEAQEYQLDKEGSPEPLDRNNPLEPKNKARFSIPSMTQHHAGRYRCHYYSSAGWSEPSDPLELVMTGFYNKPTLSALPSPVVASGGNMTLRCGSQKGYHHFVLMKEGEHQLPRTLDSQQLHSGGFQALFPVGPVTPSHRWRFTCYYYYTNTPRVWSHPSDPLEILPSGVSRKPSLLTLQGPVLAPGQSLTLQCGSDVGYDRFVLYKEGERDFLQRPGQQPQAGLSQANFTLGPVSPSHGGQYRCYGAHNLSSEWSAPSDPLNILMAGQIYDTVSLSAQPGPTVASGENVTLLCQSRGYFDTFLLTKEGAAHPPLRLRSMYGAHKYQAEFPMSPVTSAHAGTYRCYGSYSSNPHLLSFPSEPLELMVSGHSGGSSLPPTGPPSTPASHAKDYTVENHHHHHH

B1: Hz45.01-LALA (antibody, human IgG1, kappa, L234A L235A, V domains shown)
VH: QVQLVQSGAEVKKPGASVKVSCKASGYTFTDYYMNWVRQAPGQRLEWIGDINPNNGGTSYNQKFKGRATITVDTSASTAYMELSSLRSEDTAVYYCARGGAELTGTYWYFDVWGQGTTVTVSS
VL: DIQMTQSPSSLSASVGDRVTITCRASENIYSNLAWYQQKPGKAPKVLVYGATNLADGVPSRFSGSGSGTEYTLTISSLQPEDFATYYCQHFWDSPFTFGGGTKVEIKR
notes: Humanized L45S4, human IgG1 L234A/L235A, kappa; also called Humanized 45_01; Hu IgG 45_01 LALA
For orientation: Kd means the concentration at which binding is half-saturated. A word on the koff: it is a measure of how fast the partners let go of each other. As a reminder, the kon is a measure of how fast the partners come together. As a reminder, the IC50 is the concentration that gives 50% inhibition. The low end stands for greater potency, the high end for weaker potency. One may read the EC50 (read off the curve) as the concentration that produces a half-maximal response. The low end stands for an effect from little substance, the high end for a need for much substance. As for B1, the Kd in assay [1] turned out to be 0.154 nM. Also, the koff in assay [1] is 0.000531 s⁻¹. Also, the kon in assay [2] worked out at 3.45e+06 M⁻¹ s⁻¹. Moreover, the IC50 in assay [3] is 0.109 µg/mL; in assay [4] it was 0.185 µg/mL; in assay [15] it was 0.31 µg/mL; in assay [16] it was 0.106 µg/mL. Besides, the binding result in assay [5], in [6], in assay [7], in assay [8], in [9] and in assay [10] was “no binding (tested: 100 nM)” throughout. In addition, the binding result in assay [11], in assay [12] and in [13] was “no binding (tested: 100 nM)” each time. The “EC50 (read off the curve)” value in [14] is approximately 0.2 µg/mL.

B2: Hz156.03-LALA (antibody, human IgG1, kappa, L234A L235A, V domains shown)
VH: QVQLVQSGAEVKKPGSSVKVSCKASGYTFTDYYMNWVRQAPGQGLEWIARIYPGVYRTHYNEKFKDRVTLTADKSTSTAYMELSSLRSEDTAVYYCARSGYYGGTYEEDAMDYWGQGTTVTVSS
VL: DIQMTQSPSSLSASVGDRVTITCRASENIYSNLAWYQQKPGKAPKLLVYAATSLADGVPSRFSGSGSGTDYTLTISSLQPEDFATYYCQNFWDTPYTFGQGTKVEIKR
notes: Humanized L156S3, human IgG1 L234A/L235A, kappa
As for B2, the Kd in assay [1] worked out at 0.0057 nM. Moreover, the koff in assay [1] was determined as 1.83e-05 s⁻¹. Besides, the kon in assay [2] was determined as 3.22e+06 M⁻¹ s⁻¹. Moreover, the IC50 was 0.164 µg/mL in assay [3], 0.233 µg/mL in assay [4], 0.245 µg/mL in [15] and 0.149 µg/mL in assay [16]. Further, the binding result in assay [5], in assay [6], in assay [7], in [8], in assay [9] and in assay [10] was “no binding (tested: 100 nM)” each time. The binding result in assay [11], in assay [12] and in assay [13] was “no binding (tested: 100 nM)” throughout. Moreover, in assay [14], the “EC50 (read off the curve)” value is approximately 0.2 µg/mL.
